Consider two substances from patent US20050244400A1.

Experiment [1] addresses GAAΔ791-952-GILTΔ1-7 (GAA truncated with the GILT tag fused at position 791) (human) (UniProt P10253). Put plainly: cell-based or functional assay.
For experiment [2], the target named is GAA Δ 817-952 (human GAA lacking C-terminal residues 817-952) (human) (UniProt P10253). Briefly: cell-based or functional assay.

Regarding “SS-GAA-791-952 (human IGF-II signal sequence fused to human GAA residues 791-952, the C-terminal domain) (from UniProt P10253 791-952) (enzyme)”, the GAA activity (nmol/hr-ml) in media of co-transfected HEK293 cells stood at 2 nmol/h/mL in experiment [1] and 14 nmol/h/mL in experiment [2].

“SS-GAA-817-952 (from UniProt P10253 817-952) (enzyme)” came in with a GAA activity (nmol/hr-ml) in media of co-transfected HEK293 cells in experiment [1] of 1 nmol/h/mL.
